Legend:
Type in all cases: protein assay
[1] = substrate: O=[N+]([O-])c1ccc(O[C@H]2O[C@H](CO)[C@@H](O)[C@H](O)[C@@H]2O)cc1; test: (§1) Activity of Bacteroides thetaiotaomicron GH92 alpha-mannosidase 3990 D642A mutant assessed as as mannose release after 16 hrs by HPLC relative to wild type enzyme
[2] = substrate: OC[C@H]1O[C@H](O[C@H]2[C@@H](O)[C@H](O)[C@@H](CO)O[C@@H]2O)[C@@H](O)[C@@H](O)[C@@H]1O; test: as §1
[3] = substrate: O=[N+]([O-])c1ccc(O[C@H]2O[C@H](CO)[C@@H](O)[C@H](O)[C@@H]2O)c([N+](=O)[O-])c1; test: (§2) Ratio of Kcat to Km for Bacteroides thetaiotaomicron GH92 alpha-mannosidase 3990 D642A mutant assessed as as mannose release after 16 hrs by HPLC relative to wild type enzyme
[4] = substrate: O=[N+]([O-])c1ccc(O[C@H]2O[C@H](CO)[C@@H](O)[C@H](O)[C@@H]2O)cc1; test: as §2
[5] = substrate: OC[C@H]1O[C@H](O[C@H]2[C@@H](O)[C@H](O)[C@@H](CO)O[C@@H]2O)[C@@H](O)[C@@H](O)[C@@H]1O; test: as §2
[6] = substrate: O=[N+]([O-])c1ccc(O[C@H]2O[C@H](CO)[C@@H](O)[C@H](O)[C@@H]2O)cc1; test: (§3) Activity of Bacteroides thetaiotaomicron GH92 alpha-mannosidase 3990 E533A mutant assessed as as mannose release after 16 hrs by HPLC relative to wild type enzyme
[7] = substrate: OC[C@H]1O[C@H](O[C@H]2[C@@H](O)[C@H](O)[C@@H](CO)O[C@@H]2O)[C@@H](O)[C@@H](O)[C@@H]1O; test: as §3
[8] = substrate: O=[N+]([O-])c1ccc(O[C@H]2O[C@H](CO)[C@@H](O)[C@H](O)[C@@H]2O)c([N+](=O)[O-])c1; test: (§4) Ratio of Kcat to Km for Bacteroides thetaiotaomicron GH92 alpha-mannosidase 3990 E533A mutant assessed as as mannose release after 16 hrs by HPLC relative to wild type enzyme
[9] = substrate: O=[N+]([O-])c1ccc(O[C@H]2O[C@H](CO)[C@@H](O)[C@H](O)[C@@H]2O)cc1; test: as §4
[10] = substrate: OC[C@H]1O[C@H](O[C@H]2[C@@H](O)[C@H](O)[C@@H](CO)O[C@@H]2O)[C@@H](O)[C@@H](O)[C@@H]1O; test: as §4
[11] = substrate: O=[N+]([O-])c1ccc(O[C@H]2O[C@H](CO)[C@@H](O)[C@H](O)[C@@H]2O)cc1; test: (§5) Activity of Bacteroides thetaiotaomicron GH92 alpha-mannosidase 3990 S86A mutant assessed as mannose release after 16 hrs by HPLC relative to wild type enzyme
[12] = substrate: OC[C@H]1O[C@H](O[C@H]2[C@@H](O)[C@H](O)[C@@H](CO)O[C@@H]2O)[C@@H](O)[C@@H](O)[C@@H]1O; test: as §5
[13] = substrate: O=[N+]([O-])c1ccc(O[C@H]2O[C@H](CO)[C@@H](O)[C@H](O)[C@@H]2O)c([N+](=O)[O-])c1; test: (§6) Ratio of Kcat to Km for Bacteroides thetaiotaomicron GH92 alpha-mannosidase 3990 S86A mutant assessed as mannose release after 16 hrs by HPLC relative to wild type enzyme
[14] = substrate: O=[N+]([O-])c1ccc(O[C@H]2O[C@H](CO)[C@@H](O)[C@H](O)[C@@H]2O)cc1; test: as §6
[15] = substrate: OC[C@H]1O[C@H](O[C@H]2[C@@H](O)[C@H](O)[C@@H](CO)O[C@@H]2O)[C@@H](O)[C@@H](O)[C@@H]1O; test: as §6

B1: Alpha-1,2-mannosidase (BT_3990) (Bacteroides thetaiotaomicron), Q8A0N1 D642A (protein)
chain: MKRLLLIACILNCTLLSQAKDWTQYVNPLMGSQSTFELSTGNTYPAIARPWGMNFWTPQTGKMGDGWQYTYTANKIRGFKQTHQPSPWINDYGQFSIMPIVGQPVFDEEKRASWFAHKGEVATPYYYKVYLAEHDIVTEMTPTERAVLFRFTFPENDHSYVVVDAFDKGSYIKIIPEENKIIGYTTRNSGGVPENFKNYFIIEFDKPFTYKATVENGNLQENVAEQTTDHAGAIIGFKTRKGEQVNARIASSFISFEQAAANMNELGKDNIEQLAQKGKDAWNQVLGKIEVEGGNLDQYRTFYSCLYRSLLFPRKFYELDANGQPIHYSPYNGQVLPGYMFTDTGFWDTFRCLFPLLNLMYPSVNKEMQEGLINTYLESGFFPEWASPGHRGCMVGNNSASILVDAYMKGVKVDDIKTLYEGLIHGTENVHPEVSSTGRLGYEYYNKLGYVPYDVKINENAARTLEYAYDDWCIYRLAKELKRPKKEISLFAKRAMNYKNLFDKESKLMRGRNEDGTFQSPFSPLKWGDAFTEGNSWHYTWSVFHDPQGLIDLMGGKEMFVTMMDSVFAVPPIFDDSYYGQVIHEIREMTVMNMGNYAHGNQPIQHMIYLYDYAGQPWKAQYWLRQVMDRMYTPGPDGYCGAEDNGQTSAWYVFSALGFYPVCPGTDEYVMGTPLFKKATLHFENGNSLVIDAPNNSTENFYIDSMSFNGADHTKNYLRHEDLFKGGTIKVDMSNRPNLNRGTKEEDMPYSFSKE
Km [1]: Not Active | kcat [1]: Not Active | Km [2]: 0.69 mM | kcat [2]: 0.000533 s⁻¹ | kcat/Km [3]: 0.383 M⁻¹ s⁻¹ | kcat/Km [4]: Not Active | kcat/Km [5]: 0.783 M⁻¹ s⁻¹

B2: Alpha-1,2-mannosidase (BT_3990) (Bacteroides thetaiotaomicron), Q8A0N1 E533A (protein)
chain: MKRLLLIACILNCTLLSQAKDWTQYVNPLMGSQSTFELSTGNTYPAIARPWGMNFWTPQTGKMGDGWQYTYTANKIRGFKQTHQPSPWINDYGQFSIMPIVGQPVFDEEKRASWFAHKGEVATPYYYKVYLAEHDIVTEMTPTERAVLFRFTFPENDHSYVVVDAFDKGSYIKIIPEENKIIGYTTRNSGGVPENFKNYFIIEFDKPFTYKATVENGNLQENVAEQTTDHAGAIIGFKTRKGEQVNARIASSFISFEQAAANMNELGKDNIEQLAQKGKDAWNQVLGKIEVEGGNLDQYRTFYSCLYRSLLFPRKFYELDANGQPIHYSPYNGQVLPGYMFTDTGFWDTFRCLFPLLNLMYPSVNKEMQEGLINTYLESGFFPEWASPGHRGCMVGNNSASILVDAYMKGVKVDDIKTLYEGLIHGTENVHPEVSSTGRLGYEYYNKLGYVPYDVKINENAARTLEYAYDDWCIYRLAKELKRPKKEISLFAKRAMNYKNLFDKESKLMRGRNEDGTFQSPFSPLKWGDAFTAGNSWHYTWSVFHDPQGLIDLMGGKEMFVTMMDSVFAVPPIFDDSYYGQVIHEIREMTVMNMGNYAHGNQPIQHMIYLYDYAGQPWKAQYWLRQVMDRMYTPGPDGYCGDEDNGQTSAWYVFSALGFYPVCPGTDEYVMGTPLFKKATLHFENGNSLVIDAPNNSTENFYIDSMSFNGADHTKNYLRHEDLFKGGTIKVDMSNRPNLNRGTKEEDMPYSFSKE
Km [6]: 9.3 mM | kcat [6]: 0.00333 s⁻¹ | Km [7]: 1.4 mM | kcat [7]: 0.00433 s⁻¹ | kcat/Km [8]: 6000 M⁻¹ s⁻¹ | kcat/Km [9]: 0.35 M⁻¹ s⁻¹ | kcat/Km [10]: 3 M⁻¹ s⁻¹

B3: Alpha-1,2-mannosidase (BT_3990) (Bacteroides thetaiotaomicron), Q8A0N1 S86A (protein)
chain: MKRLLLIACILNCTLLSQAKDWTQYVNPLMGSQSTFELSTGNTYPAIARPWGMNFWTPQTGKMGDGWQYTYTANKIRGFKQTHQPAPWINDYGQFSIMPIVGQPVFDEEKRASWFAHKGEVATPYYYKVYLAEHDIVTEMTPTERAVLFRFTFPENDHSYVVVDAFDKGSYIKIIPEENKIIGYTTRNSGGVPENFKNYFIIEFDKPFTYKATVENGNLQENVAEQTTDHAGAIIGFKTRKGEQVNARIASSFISFEQAAANMNELGKDNIEQLAQKGKDAWNQVLGKIEVEGGNLDQYRTFYSCLYRSLLFPRKFYELDANGQPIHYSPYNGQVLPGYMFTDTGFWDTFRCLFPLLNLMYPSVNKEMQEGLINTYLESGFFPEWASPGHRGCMVGNNSASILVDAYMKGVKVDDIKTLYEGLIHGTENVHPEVSSTGRLGYEYYNKLGYVPYDVKINENAARTLEYAYDDWCIYRLAKELKRPKKEISLFAKRAMNYKNLFDKESKLMRGRNEDGTFQSPFSPLKWGDAFTEGNSWHYTWSVFHDPQGLIDLMGGKEMFVTMMDSVFAVPPIFDDSYYGQVIHEIREMTVMNMGNYAHGNQPIQHMIYLYDYAGQPWKAQYWLRQVMDRMYTPGPDGYCGDEDNGQTSAWYVFSALGFYPVCPGTDEYVMGTPLFKKATLHFENGNSLVIDAPNNSTENFYIDSMSFNGADHTKNYLRHEDLFKGGTIKVDMSNRPNLNRGTKEEDMPYSFSKE
Km [11]: 8.5 mM | kcat [11]: 0.00667 s⁻¹ | Km [12]: 3.2 mM | kcat [12]: 2 s⁻¹ | kcat/Km [13]: 51.7 M⁻¹ s⁻¹ | kcat/Km [14]: 0.783 M⁻¹ s⁻¹ | kcat/Km [15]: 6330 M⁻¹ s⁻¹
